Consider one molecule from US20250346679A1 (INVOX PHARMA, published 2025).

Experiment [1] has as its target T1, human CD137, cell-surface (human, UniProt Q07011 24-255).
T1 construct: over-expressed on DO11.10 or HEK cells or endogenous on primary T cells, as named under assay; also called DO11.10.hCD137; HEK.FRT.luc.hCD137
As to the kind of experiment: flow cytometry on DO11.10.hCD137. On the procedure:
Non-specific binding was also assessed by testing binding to DO11.10 cells lacking CD137 expression.
(§1) Briefly, DO11.10, DO11.10.hCD137 or DO11.10.cCD137 suspensions were prepared in FACS buffer (DPBS containing (Gibco, 14190-094) containing 0.5% BSA (Sigma, A7906)) and seeded at 1×10⁵ cell/well in 100 μl in round bottomed 96-well plates (VWR, 734-1797). […] The washed cells were resuspended in the diluted antibody mixture, incubated at 4° C. for 30 minutes, and then washed once in FACS buffer. […] Dead cells were excluded and the fluorescence in the APC channel (638 nm 660/20) was measured. The geometric mean fluorescence intensity (GMFI) values were plotted vs the log concentration of antibody and the resulting curves were fitted using the log (agonist) vs response equation in GraphPad Prism.

The target in experiment [2] is T1, human CD137, cell-surface. The experiment is described as follows: cell-based or functional assay.
A further experiment has as its target T2, hCD137-mFc-Avi (human; mouse, UniProt Q07011 24-186, biotin on the Avi sequence where the biotinylated form was used).
T2 construct: also called human CD137-mFc-Avi; dimeric human CD137; not shown: mouse IgG2a Fc domain (mIgG2a Fc)
As to the kind of experiment: SPR, mAb^2 captured by anti-human Fab, antigen in flow. As for the experimental part:
(§2) The binding of the anti-human CD137/PD-L1 mAb² to recombinant dimeric human and cynomolgus CD137 antigens was also measured by SPR using a Biacore T200 processing unit (GE Healthcare).
(§3) Briefly, 20 μg/ml anti-human Fab antibody (GE Healthcare, Human Fab Capture kit 28958325) was coated on flow cells 1, 2, 3 and 4 of a Biacore sensor S chip CM5 (GE Healthcare, BR100530) achieving a final response of approximately 5000 RU. […] The recombinant dimeric antigens, human CD137-mFc-Avi or cynomolgus CD137-mFc-Avi (see Example 1.1 for antigen details) diluted in HBS-EP buffer, were injected on flow cell 1, 2, 3 or 4 as appropriate at a concentration range of 81 nM to 0.037 nM with 3-fold dilutions for 4 minutes at 70 μl/min and then allowed to dissociate in buffer for 10 minutes. Regeneration was achieved by injecting 10 mM glycine pH 2.1 (GE Healthcare, Human Fab Capture kit 28958325) for 60 seconds at a rate of 30 μl/min. Data analysis was performed as described in Example 9.1.

For the next experiment, the target named is T3, cCD137-mFc-Avi (cynomolgus; mouse).
T3 construct: also called cynomolgus CD137-mFc-Avi; Cyno CD137-mFc-Avi; not shown: mouse IgG2a Fc domain (mIgG2a Fc)
T3 chain: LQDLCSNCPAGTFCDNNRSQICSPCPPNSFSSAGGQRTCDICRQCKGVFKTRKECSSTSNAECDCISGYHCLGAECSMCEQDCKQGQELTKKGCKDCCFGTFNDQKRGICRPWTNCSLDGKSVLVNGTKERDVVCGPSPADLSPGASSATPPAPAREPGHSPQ
The experiment is described as above. On the procedure:
as §2, §3

Experiment [3] concerns the target T4, human PD-L1, cell-surface (human, UniProt Q9NZQ7 19-290).
T4 construct: also called HEK.hPD-L1; PD-L1 on MDA-MB-231, on Promega PD-L1 cells, on primary human cells
As to the kind of experiment: flow cytometry on activated primary human CD4+ T cells (carry PD-L1 and CD137); activated primary human CD4+ T cells (carry PD-L1 and little CD137). As for the experimental part:
CD137 is rapidly expressed to high levels on activated CD8⁺ T cells and also on activated CD4⁺ T cells with lower levels (Xue-Zhong Yu et al, 2013), therefore Pan T cells were stimulated for 24 hours using Dynabeads™ Human T-Activator CD3/CD28 beads (Thermo, 11132D) according to manufacturer's instructions.
Dead cells were excluded and the fluorescence in the APC channel (638 nm 660/20) was measured to show test antibody binding. The geometric Mean Fluorescence Intensity (GMFI) values were plotted vs the log concentration of antibody and the resulting curves were fitted using the log (agonist) vs response equation in GraphPad Prism.

Experiment [4] concerns the target T5, cynomolgus PD-L1, cell-surface (cynomolgus).
T5 construct: also called HEK.cPD-L1; HEK.cyPD-L1
The experiment is described as follows: flow cytometry on HEK.cPD-L1. As for the experimental part:
Non-specific binding was also assessed by testing binding to HEK293 parental cells lacking human PD-L1 (Flp-In T-Rex 293 cell line, Life Technologies, R780-07).
as §1, with “HEK293, HEK.hPD-L1 and HEK.cPD-L1” for “Briefly, DO11.10, DO11.10.hCD137 or DO11.10.cCD137”, “(DPBS” for “(DPBS containing”
On the technique in general: In flow cytometry, cells or beads pass a laser one at a time.

T4 sequence (Q9NZQ7 19-290): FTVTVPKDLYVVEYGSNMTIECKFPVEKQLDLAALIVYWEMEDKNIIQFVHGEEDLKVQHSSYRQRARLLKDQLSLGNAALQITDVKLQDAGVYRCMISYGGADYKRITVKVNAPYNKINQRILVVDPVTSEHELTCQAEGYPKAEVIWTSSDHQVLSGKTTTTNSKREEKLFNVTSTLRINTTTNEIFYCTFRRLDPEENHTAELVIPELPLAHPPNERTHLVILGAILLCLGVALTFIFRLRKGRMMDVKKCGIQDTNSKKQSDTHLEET
T2 sequence (Q07011 24-186): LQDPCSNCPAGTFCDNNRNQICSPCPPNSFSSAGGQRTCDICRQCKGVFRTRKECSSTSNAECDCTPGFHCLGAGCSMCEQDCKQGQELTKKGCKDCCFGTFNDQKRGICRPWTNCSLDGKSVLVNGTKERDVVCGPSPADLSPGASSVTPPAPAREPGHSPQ
T5 sequence (chain, as listed by the source limits assumed): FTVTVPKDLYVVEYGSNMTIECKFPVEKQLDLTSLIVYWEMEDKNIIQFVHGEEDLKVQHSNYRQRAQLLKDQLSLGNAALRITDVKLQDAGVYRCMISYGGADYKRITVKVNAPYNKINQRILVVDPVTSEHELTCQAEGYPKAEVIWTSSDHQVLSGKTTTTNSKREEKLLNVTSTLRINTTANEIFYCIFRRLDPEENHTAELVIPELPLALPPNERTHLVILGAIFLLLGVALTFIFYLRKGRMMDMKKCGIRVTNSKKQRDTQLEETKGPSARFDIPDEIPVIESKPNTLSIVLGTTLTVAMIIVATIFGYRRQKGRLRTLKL

B1: FS22-172-003-AA/E12v2 (bispecific antibody, human IgG1, kappa, L234A L235A)
heavy: EVQLVQSGAEVKRPGASVKVSCKASGYPFTSYGISWVRQAPGQGLEWMGWISAYSGGTNYAQKLQGRVTMTTDTSTSTAYMELRSLRSDDTAVYYCARDLFPTIFGVSYYYYWGQGTLVTVSSASTKGPSVFPLAPSSKSTSGGTAALGCLVKDYFPEPVTVSWNSGALTSGVHTFPAVLQSSGLYSLSSVVTVPSSSLGTQTYICNVNHKPSNTKVDKKVEPKSCDKTHTCPPCPAPEAAGGPSVFLFPPKPKDTLMISRTPEVTCVVVDVSHEDPEVKFNWYVDGVEVHNAKTKPREEQYNSTYRVVSVLTVLHQDWLNGKEYKCKVSNKALPAPIEKTISKAKGQPREPQVYTLPPSRDELPYIIPPYNQVSLTCLVKGFYPSDIAVEWESNGQPENNYKTTPPVLDSDGSFFLYSKLTVGADRWLEGNVFSCSVMHEALHNHYTQKSLSLSPG
light: DIQMTQSPSTLSASVRDRVIITCRASQSIGNRLAWYQHKPGKAPKLLIYEASTSETGVPSRFSGSGSGTDFTLTISSLQPEDFATYYCQQSYSTPYTFGQGTKLEIKRTVAAPSVFIFPPSDEQLKSGTASVVCLLNNFYPREAKVQWKVDNALQSGNSQESVTEQDSKDSTYSLSSTLTLSKADYEKHKVYACEVTHQGLSSPVTKSFNRGEC
notes: PD-L1 site in the Fab, CD137 site in the CH3, LALA; also called anti-human CD137/PD-L1 mAb^2
By EC50 is commonly meant the concentration that produces a half-maximal response. A low value points to a more potent agent. What is called Kd is the concentration at which binding is half-saturated. Take B1: the EC50 in experiment [1] worked out at 6200 pM; in experiment [3] it was 800 pM; in experiment [4] it was 700 pM. Moreover, the “EC50 (nM), IFN-γ release, CEF antigen recall assay (CD8+ T cell activation)” value in experiment [2] was 0.03 nM. Moreover, the Kd was determined as 700 pM with hCD137-mFc-Avi and 800 pM in the experiment with cCD137-mFc-Avi.
